From US20220332795A1 (ARO BIOTHERAPEUTICS, published 2022)
Changes are numbered by the printed parent chain.

B1: SEQ ID NO 160 (designed binder)
chain: MLPAPKNLVVSRVTEDSARLSWTAPDAAFDSFYIAYAEPRPDGEAIVLTVPGSERSYDLTGLKPGTEYSVLIHGVKGGLLSSPLLAYFTT
notes: FN3 domain
B2: SEQ ID NO 169 (designed binder)
chain: B1 chain with V47L, T49L, L85S, Y87V
notes: FN3 domain
B3: SEQ ID NO 195 (designed binder)
chain: B1 chain with V47I, T49D, L85S, A86S, Y87I
notes: FN3 domain
B4: SEQ ID NO 185 (designed binder)
chain: B1 chain with V47Y, T49G, L85R, Y87K
notes: FN3 domain
B5: SEQ ID NO 197 (designed binder)
chain: B1 chain with V47K, T49D, L85V, Y87F
notes: FN3 domain
B6: SEQ ID NO 189 (designed binder)
chain: B1 chain with V47Q, L62P, S69W, H73Q, L79G, L80S, S82V, L85V
notes: FN3 domain
B7: SEQ ID NO 201 (designed binder)
chain: B1 chain with V47S, T49W, Y87H
notes: FN3 domain
B8: SEQ ID NO 188 (designed binder)
chain: B1 chain with V47G, T49G, L85D, Y87S
notes: FN3 domain
B9: SEQ ID NO 190 (designed binder)
chain: B1 chain with V47S, T49D, L85E, Y87S
notes: FN3 domain
B10: SEQ ID NO 186 (designed binder)
chain: B1 chain with V47Q, T49G, L85S, Y87I
notes: FN3 domain
B11: SEQ ID NO 180 (designed binder)
chain: B1 chain with V47A, T49L, L85V, Y87Q
notes: FN3 domain
B12: SEQ ID NO 198 (designed binder)
chain: B1 chain with V47I, T49E, L85V
notes: FN3 domain
B13: SEQ ID NO 165 (designed binder)
chain: B1 chain with T49Q, L85A, Y87W
notes: FN3 domain
B14: SEQ ID NO 164 (designed binder)
chain: B1 chain with V47I, T49R, L85V, Y87I
notes: FN3 domain
B15: SEQ ID NO 178 (designed binder)
chain: B1 chain with V47Q, T49Q, L85S, Y87I, F88V
notes: FN3 domain
B16: SEQ ID NO 175 (designed binder)
chain: B1 chain with Y33R, A35S, A37C, P39T, R40F, P41Y, D42H, L85I, Y87K
notes: FN3 domain
B17: SEQ ID NO 167 (designed binder)
chain: B1 chain with Y33F, A35G, A37L, R40Q, D42P, V47I, T49G, L85H, F88S
notes: FN3 domain
B18: SEQ ID NO 183 (designed binder)
chain: B1 chain with V47L, T49D, L79F, L80P, S82M, L85S, Y87I
notes: FN3 domain
B19: SEQ ID NO 166 (designed binder)
chain: B1 chain with V47F, T49Q, L85N, Y87F
notes: FN3 domain
B20: SEQ ID NO 170 (designed binder)
chain: B1 chain with V47H, T49L, Y87H
notes: FN3 domain
B21: SEQ ID NO 179 (designed binder)
chain: B1 chain with Y33P, L85S, Y87F
notes: FN3 domain
B22: SEQ ID NO 199 (designed binder)
chain: B1 chain with V47H, T49W, L85H, Y87D
notes: FN3 domain
B23: SEQ ID NO 194 (designed binder)
chain: B1 chain with V47A, T49L, L85S, Y87I, F88V
notes: FN3 domain
B24: SEQ ID NO 200 (designed binder)
chain: B1 chain with V47W, T49E, L85V, Y87D
notes: FN3 domain
B25: SEQ ID NO 171 (designed binder)
chain: B1 chain with V47Q, T49W, L85D
notes: FN3 domain
B26: SEQ ID NO 182 (designed binder)
chain: B1 chain with V47D, T49H, L85H, Y87L
notes: FN3 domain
B27: SEQ ID NO 196 (designed binder)
chain: B1 chain with T49W, L85R, Y87S
notes: FN3 domain
B28: SEQ ID NO 193 (designed binder)
chain: B1 chain with V47S, T49S, L85I, Y87N
notes: FN3 domain
B29: SEQ ID NO 107 (designed binder)
chain: MSLPAPKNLVVSRVTEDSARLSWTAPDAAFDSFYIAYAEPRPDGEAISLYVPGSERSYDLTGLKPGTEYSVLIHGVKGGLLSSPLSAISTT
notes: FN3 domain
B30: SEQ ID NO 174 (designed binder)
chain: MLPAPKNLVVSRVTEDSARLSWTAPDAAFDSFFIGYLEPQPPGEAIQLWVPGSERSYDLTGLKPGTEYNVTIQGVKGGFPSMPLSAIFTT
notes: FN3 domain
B31: SEQ ID NO 108 (designed binder)
chain: B30 chain with W49R
notes: FN3 domain

These binders were tested against T1, CD71 apical domain (UniProt P02786 189-383, limits assumed) (assay: solution ELISA, signal ratio to HSA).
T1 construct: domain: Apical domain
T1 sequence (P02786 189-383 limits assumed): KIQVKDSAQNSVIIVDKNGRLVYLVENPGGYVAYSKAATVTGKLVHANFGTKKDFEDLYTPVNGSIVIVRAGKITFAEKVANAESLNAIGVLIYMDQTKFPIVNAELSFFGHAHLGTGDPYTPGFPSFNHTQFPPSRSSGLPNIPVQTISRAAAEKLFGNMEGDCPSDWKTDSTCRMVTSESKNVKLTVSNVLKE

Binder	apical domain:HSA
B1	378
B2	420
B3	177
B4	369
B5	144
B6	0.8
B7	32.2
B8	195
B9	208
B10	322
B11	366
B12	342
B13	299
B14	328
B15	257
B16	519

Binder	apical domain:HSA
B17	0.7
B18	310
B19	170
B20	117
B21	252
B22	324
B23	273
B24	339
B25	296
B26	209
B27	235
B28	219
B29	95.8
B30	157
B31	182

What follows are binders tested against T2, recombinant biotinylated human CD71 extracellular domain (human, UniProt P02786 89-760, biotinylated) (assay: solution ELISA, signal ratio to HSA).
T2 construct: extracellular domain; also called hCD71; huCD71 ECD
T2 sequence (P02786 other isoform, or with tags, fused parts or gaps): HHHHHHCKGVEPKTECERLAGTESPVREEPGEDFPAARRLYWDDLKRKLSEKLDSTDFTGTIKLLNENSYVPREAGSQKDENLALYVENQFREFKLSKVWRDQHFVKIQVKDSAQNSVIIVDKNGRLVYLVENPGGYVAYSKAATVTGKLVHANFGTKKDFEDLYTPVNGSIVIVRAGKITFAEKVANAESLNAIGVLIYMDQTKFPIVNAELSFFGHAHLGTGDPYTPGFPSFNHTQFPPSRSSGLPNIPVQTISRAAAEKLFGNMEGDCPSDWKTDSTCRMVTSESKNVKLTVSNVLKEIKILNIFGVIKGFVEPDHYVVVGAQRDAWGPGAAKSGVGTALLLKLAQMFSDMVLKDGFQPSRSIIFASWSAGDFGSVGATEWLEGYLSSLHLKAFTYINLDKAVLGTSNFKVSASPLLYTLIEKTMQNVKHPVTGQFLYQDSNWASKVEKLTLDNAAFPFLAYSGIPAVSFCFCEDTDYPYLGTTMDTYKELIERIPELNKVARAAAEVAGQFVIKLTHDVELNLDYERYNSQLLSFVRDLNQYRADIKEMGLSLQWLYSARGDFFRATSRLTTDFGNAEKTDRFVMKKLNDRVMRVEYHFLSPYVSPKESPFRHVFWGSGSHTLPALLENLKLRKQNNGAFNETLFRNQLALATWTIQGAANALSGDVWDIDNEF

Binder	hCD71:HSA
B1	203
B2	241
B3	103
B4	44
B5	29.6
B6	21.5
B7	14
B8	13.3
B9	16.4
B10	50.6
B11	61.6
B12	186
B13	175
B14	147
B15	45
B16	313

Binder	hCD71:HSA
B17	23.2
B18	50.3
B19	34
B20	19.6
B21	127
B22	24.3
B23	39
B24	51.6
B25	35.3
B26	14.5
B27	84.6
B28	61.2
B29	21.8
B30	61.7
B31	69.6

Each binder was assayed against T1, CD71 apical domain (assay: solution ELISA).

Binder	Apical domain, RLU
B1	8.31e+06 RLU
B2	7.21e+06 RLU
B3	7.35e+06 RLU
B4	5.46e+06 RLU
B5	6.78e+06 RLU
B6	98900 RLU
B7	7.5e+06 RLU
B8	5.24e+06 RLU
B9	4.89e+06 RLU
B10	5.38e+06 RLU
B11	3.88e+06 RLU
B12	7.2e+06 RLU
B13	8.37e+06 RLU
B14	8.42e+06 RLU
B15	4.95e+06 RLU
B16	7.16e+06 RLU

Binder	Apical domain, RLU
B17	128000 RLU
B18	6.95e+06 RLU
B19	6.08e+06 RLU
B20	4.86e+06 RLU
B21	7.29e+06 RLU
B22	5.56e+06 RLU
B23	4.78e+06 RLU
B24	6.1e+06 RLU
B25	5.48e+06 RLU
B26	2.84e+06 RLU
B27	5.93e+06 RLU
B28	6.12e+06 RLU
B29	5.99e+06 RLU
B30	4.83e+06 RLU
B31	2.44e+06 RLU

Each binder was assayed against T2, recombinant biotinylated human CD71 … (assay: solution ELISA).

Binder	hCD71, RLU
B1	4.46e+06 RLU
B2	4.14e+06 RLU
B3	4.27e+06 RLU
B4	652000 RLU
B5	1.4e+06 RLU
B6	2.57e+06 RLU
B7	3.25e+06 RLU
B8	358000 RLU
B9	385000 RLU
B10	844000 RLU
B11	653000 RLU
B12	3.91e+06 RLU
B13	4.91e+06 RLU
B14	3.78e+06 RLU
B15	865000 RLU
B16	4.32e+06 RLU

Binder	hCD71, RLU
B17	4.17e+06 RLU
B18	1.13e+06 RLU
B19	1.22e+06 RLU
B20	814000 RLU
B21	3.68e+06 RLU
B22	416000 RLU
B23	682000 RLU
B24	930000 RLU
B25	653000 RLU
B26	197000 RLU
B27	2.13e+06 RLU
B28	1.71e+06 RLU
B29	1.36e+06 RLU
B30	1.9e+06 RLU
B31	932000 RLU
